Results as given in US8530235B2, “Medium that supports culture of an oocyte and modulation of granulosa cell apoptosis” (Adelaide Research & Innovation Pty Ltd., priority 2005, dated 2013).

B1: GDF-9: Recombinant mouse GDF-9 produced in-house in transfected 293H cells, partially purified by HIC (protein, UniProt Q07105 307-441, looked up)
Growth/differentiation factor …: GQKAIRSEAKGPLLTASFNLSEYFKQFLFPQNECELHDFRLSFSQLKWDNWIVAPHRYNPRYCKGDCPRAVRHRYGSPVHTMVQNIIYEKLDPSVPRPSCVPGKYSPLSVLTIEPDGSIAYKEYEDMIATRCTCR
B2: BMP-15: Recombinant ovine BMP-15 produced in-house in transfected 293H cells, partially purified by hydrophobic interaction chromatography; dosed as % v/v (protein, UniProt Q9MZE2 269-393, looked up)
Bone morphogenetic protein 15: QAGSIASEVPGPSREHDGPESNQCSLHPFQVSFQQLGWDHWIIAPHLYTPNYCKGVCPRVLHYGLNSPNHAIIQNLVSELVDQNVPQPSCVPYKYVPISILLIEANGSILYKEYEGMIAQSCTCR

Columns and labels:
cumulus-oocyte complexes = test: Study V: oocyte IVM with GDF9, cumulus expansion and embryo development; type: cell-based, mice; conditions: 200 ng/ml GDF9 with FSH/EGF
Method: (§1) Oocytes (n=1106) were then fertilised and cultured to the blastocyst stage in G1.2/G2.2 medium at 37° C. in 6% CO2 5% O2. Blastocysts were pooled and either transferred to pseudo-pregnant Swiss females or differentially stained. Pregnancy outcome was assessed on Day 15 of pregnancy.

[1] = Study V: pregnancy outcome after transfer of blastocysts to pseudo-pregnant females; type: in vivo, mice; conditions: oocytes matured with 200 ng/ml GDF9, Day 15 of pregnancy
Method: as §1

mural granulosa cells = test: Mural granulosa cell DNA synthesis, 3H-thymidine incorporation; type: cell-based, marmoset monkey, Callithrix jacchus; conditions: peri antral, small antral and large antral follicles; most notably small follicles, synergism with IGF1
Method: Mural GC from large antral follicles were cultured for 24h and thymidine incorporation was stimulated with 175 ng/ml GDF9. […] Bars/points represent means+/−SEM from 3 replicate experiments expressed as a fold change relative to control.
Follicles were manually excised and separated into 3 size classes: periantral (PA; 0.42-0.66 mm), small antral (SA; 0.66-1.5 mm) and large antral (LA; >1.5 mm). GCs from each follicle size were collected and pooled, then washed twice in bicarbonate-buffered tissue culture medium-199 (B-TCM) supplemented with 0.3 mg/ml of polyvinyl alcohol (PVA, Sigma). Depending on the individual experiments, mural GCs (1×10^5 cells/ml), hormones, inhibitors and media were added to wells of 96-well plates (Falcon) to give a final volume of 125 μl. Within each experiment, all treatments were carried out in at least duplicate wells and each experiment was replicated on at least 3 occasions. Cells were cultured in an atmosphere of 37° C., 96% humidity in 5% CO2 in air for 18 hours, followed by a further 6 hour pulse of 15.4 kBq tritiated thymidine (3H-thymidine, ICN) under the same conditions.
Seven adult female marmosets were primed with […] for 6 days, whole ovaries were removed on day 7, follicles manually excised, and GC were then collected from 3 size classes: periantral (PA; 0.42-0.66 mm), small antral (SA; 0.66-1.5 mm) and large antral (LA; >1.5 mm). Four different approaches were utilized to examine GDF9 function in GC. […] To examine the GDF9 signalling pathway, cultured GC from LA follicles were transfected with either a CAGA-luciferase or BRE-luciferase reporter construct and treated with various TGF-β superfamily growth factors or co-cultured with mouse oocytes. In order to determine the effects of GDF9 on marmoset GC proliferation, we employed a GC bioassay whereby after 24 h ^3H-thymidine incorporation is assessed as an indicator of DNA synthesis and cellular proliferation. […] In another experiment, GC were treated with an increasing dose of SB431542, an activin-like kinase (ALK) 4/5/7 inhibitor, in the presence of GDF9+/−IGF1.

[2] = test system: cumulus expansion of oocytectomised (OOX) complexes; test: FSH-induced cumulus expansion score of OOX complexes; type: cell-based, mice; conditions: score 0 (no expansion) to +4 (maximum expansion); mean ±SEM; OOX complexes with FSH
Method: Members of the TGF-β superfamily are prime candidates for the mouse cumulus expansion-enabling factor (CEEF). This study was conducted to examine TGF-β superfamily processes regulating cumulus expansion. COCs were collected from eGG-primed mice and the oocyte microsurgically removed to generate oocytectomised (OOX) complexes. […] The type-I receptors for GDF9 and […] are ALK5 and ALK4, respectively. We tested the ability of an ALK4/5/7 kinase inhibitor to neutralize cumulus expansion.

cumulus cells = test: Staurosporine-induced cumulus cell apoptosis in OOX (TUNEL); type: cell-based, Bovine; conditions: 10% BMP-15 or 10 ng/ml BMP-6
Method: CC apoptoic DNA was detected using TUNEl (Roche Diagnostic, Penzberg, Germany) according to the manufacturer's instructions. […] Complexes were then permeabilized in 0.11/u Triton X-100 in 0.1% sodium citrate for 1 hour at room temperature and washed 3 times in PBS/BSA. The complexes were then incubated in fluorescein-conjugated dUTP and terminal deoxynucleotide transferase (TUNEl reagents, Roche) for 1 hour at 37° C. in the dark. Positive controls were incubated in DNAse 1 (0.005 U/µl), which cleaves all DNA, for 20 minutes at room temperature and washed twice in PBS/BSA before TUNEl. Negative controls were incubated in fluorescein-dUTP in the absence of TdT. After TUNEl, complexes were washed twice in PBS/BSA and counterstained with propidium iodide 0.5 μg/ml (PI) plus RNase A (0.1 mg/ml) for 1 hour at room temperature in the dark to label all nuclei. Complexes were then washed twice in PBS/BSA and mounted with slight coverslip compression in VectaShield anti-bleaching solution (Vector labs, Burlingame, Calif.), and stored in the dark at 4° C. for confocal analysis. […] These optical section images were acquired and saved as independent colour channels (green, apoptotic cumulus fluorescence and red, nuclear cumulus fluorescence). The captured images were then processed in Scanalytics IPlab software Version 3.6. (Scanalytics, Fairfax, Va.). Quantification of CC number (for each colour channel) was independently measured using a macro script utilizing an auto segmentation filter for each optical section percentile (3 optical “z”-plane sections for each complex). A percentage of apoptotic nuclei were generated for each slice and the three percentile values were then averaged to achieve a representation of the total apoptotic nuclei percentage for the whole complex. These processes were repeated separately on each individual complex. A preliminary experiment was conducted to determine the apoptotic effect of staurosporine on bovine CC, which induced apoptosis in a dose-dependent manner (range; 0.1-100 μM, data not shown). The aim of this experiment was to determine whether OSF could prevent CC from undergoing apoptosis induced by staurosporine. OOX alone or co-cultured with 35 DO, 10 ng/ml BMP-6 or 10% (v/v) BMP-15, and were then exposed to either 0.1 μM or 1.0 μM staurospourine for the last 6 hours of the 24 hour incubation period. Three replicates of this experiment were carried out using 10 OOX per treatment group per replicate experiment.

| Molecule | fertilisation, rate of development or blastocyst percentages (cumulus-oocyte complexes) | blastocyst total cell number (cumulus-oocyte complexes; P=0.05) | cumulus expansion index (cumulus-oocyte complexes; vs 2.4±0.1) | blastocyst percentages (cumulus-oocyte complexes; vs 75%, no significant effect) | fetal development ([1]; vs 21%, P=0.04) | implantation ([1]; vs 77%, not affected) | GC DNA synthesis (mural granulosa cells) | cumulus expansion score [2] | CC apoptosis of treated OOX exposed to staurosporine (cumulus cells; 0.1 μM staurosporine) | CC apoptosis of treated OOX exposed to staurosporine (cumulus cells; 1 μM staurosporine) |
| --- | --- | --- | --- | --- | --- | --- | --- | --- | --- | --- |
| B1 | no significant effect | significantly increased | 3.1±0.1 | 83% | 39% | 83% | stimulates GC DNA synthesis in all follicle sizes | 3.7±0.1 |  |  |
| B2 |  |  |  |  |  |  |  |  | 17% | 25% |
